Experimental data published in patent US20120301468A1, “ANTI-MN ANTIBODIES AND METHODS OF USING SAME” (BAYER HEALTHCARE LLC, priority 2005, published 2012).

Molecular target: human MN protein, entire extra-cellular domain with a C-terminal histag, expressed in HKB-11 cells (human), Q16790
Assay: SPR, BIAcore 3000, IgG captured by anti-human IgG Fc, MN as analyte, 1:1 Langmuir fit
Settings: remark: other sources report otherwise

B1: 3a4 full-length human IgG1 (antibody, V domains shown)
VH: QVELVESGGGLVQPGGSLRLSCAASGFTFSDYSINWVRQAPGKGLEYVSNISYSGSSTYYADSVKGRFTISRDNSKNTLYLQMNSLRAEDTAVYYCARFKYSGGSDSWGQGTLVTVSS
VL: DIELTQPPSVSVAPGQTARISCSGDNLPDFYVHWYQQKPGQAPVLVISEDNKRPSGIPERFSGSNSGNTATLTISGTQAEDEADYYCSTYGYTYSYSVFGGGTKLTVL
**Q.** B1 was tested. Which Kd did it give?
**A.** 1 nM
